The text below walks through data of PMC6071530.

The target in the test is Recombinant human S100A4 (human) (UniProt P26447). Put plainly: SPR; BIAcore 2000; 2000 RU of recombinant human S100A4 immobilized covalently on a CM4 chip; soluble AR or NRG as analyte.
Recombinant human S100A4 (human), sequence (P26447 whole entry): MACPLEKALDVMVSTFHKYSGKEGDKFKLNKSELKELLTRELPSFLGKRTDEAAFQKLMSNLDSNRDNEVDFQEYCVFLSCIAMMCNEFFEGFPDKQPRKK

In the case of “Neuregulin 1 (from UniProt Q02297 20-241) (ligand)”, the Kd was 19.9 nM.
